Laboratory results taken from patent US20240417476A1.

target: recombinant NRP2 isoform a (human) (UniProt O60462); experiment: BLI (Octet RED96e)

Row | Kd | koff | kon | Binder
1 | 0.391 nM | 0.000293 s⁻¹ | 748000 M⁻¹ s⁻¹ | aNRP2-401v5 (antibody, V domains shown) VH: EVQLVESGGGLVQPGGSLRLSCAASGFTFSDYGMHWVRQAPGKGLEWVSTISRDINTVYYADTVKGRFTISRDNAKNSLYLQMNSLRAEDTAVYYCARGGYTDYWGQGTTVTVSS VL: DIVMTQTPLSLSVTPGQPASISCRSSQSLVHSNGNTYLYWYLQKPGQSPQLLIYKVSNRFSGVPDRFSGSGSGTDFTLKISRVEAEDVGVYYCSQSTHVLTFGGGTKVEIK
2 | 0.0989 nM | 0.00012 s⁻¹ | 1.21e+06 M⁻¹ s⁻¹ | aNRP2-401v8 (antibody, V domains shown) VH: EVQLVESGGGLVQPGGSLRLSCAASGFTFSDYGMHWVRQAPGKGLEWVSTISRDIQTVYYADTVKGRFTISRDNAKNSLYLQMNSLRAEDTAVYYCARGGYTDYWGQGTTVTVSS VL: DIVMTQTPLSLSVTPGQPASISCRSSQSLVHSNGNTYLYWYLQKPGQSPQLLIYKVSNRFSGVPDRFSGSGSGTDFTLKISRVEAEDVGVYYCAQSTHPLTFGGGTKVEIK
3 | 0.162 nM | 0.000162 s⁻¹ | 999000 M⁻¹ s⁻¹ | aNRP2-401v6 (antibody, V domains shown) VH: EVQLVESGGGLVQPGGSLRLSCAASGFTFSDYGMHWVRQAPGKGLEWVSTISRDINTVYYADTVKGRFTISRDNAKNSLYLQMNSLRAEDTAVYYCARGGYTDYWGQGTTVTVSS VL: DIVMTQTPLSLSVTPGQPASISCRSSQSLVHSNGNTYLYWYLQKPGQSPQLLIYKVSNRFSGVPDRFSGSGSGTDFTLKISRVEAEDVGVYYCAQSTHPLTFGGGTKVEIK
4 | 0.141 nM | 0.000173 s⁻¹ | 1.23e+06 M⁻¹ s⁻¹ | aNRP2-401v7 (antibody, V domains shown) VH: EVQLVESGGGLVQPGGSLRLSCAASGFTFSDYGMHWVRQAPGKGLEWVSTISRSINTVYYADTVKGRFTISRDNAKNSLYLQMNSLRAEDTAVYYCARGGYTDYWGQGTTVTVSS VL: DIVMTQTPLSLSVTPGQPASISCRSSQSLVHSNGNTYLYWYLQKPGQSPQLLIYKVSNRFSGVPDRFSGSGSGTDFTLKISRVEAEDVGVYYCAQSTHPLTFGGGTKVEIK

target: recombinant NRP2 isoform a (human) (UniProt O60462); experiment: BLI, antibody captured by anti-mouse kappa, NRP2a titrated 0.62-450 nM, 1:1 fit

Row | Binder | Kd
5 | aNRP2-400v2 (antibody, V domains shown) VH: EVQLQESGAELARPGASVKLSCKASGYTFRSYGISWVKQRTGQGLEWIGEIYPRSGNTYYDENFKGRATLTADKSSSTAFMELRSLTSEDSAVYFCARSSITAVVAIPYYYAMDYWGQGTSVTVSS VL: DIQMTQTTSSLSASLGDRVTISCSASQGISNYLNWYQQKPDGSVKLLIYYTSSLHSGVPSRFSGSGSGTDYSLTISNLEPEDIATYYCQQYSKLPHTFGGGTKLELK | 0.453 nM
6 | aNRP2-37v2 (antibody, V domains shown) VH: DVKLVESGEGLVKPGGSLKLSCAASGFTFSDYALSWVRQTPEKRLEWVAYISSGGDYIYYADTVRGRFTISRDNARNTLYLQMSSLQSEDTAIYYCTRGGQDDYWGQGTTLTVSS VL: DVVMTQTPLSLPVILGDQASISCRSSQSLVHSNGNTYLQWYLQKPGQSPKLLIYKVSNRFSGVPDRFSGSGSGTDFTLKISRVEAEDLGVYFCSQSTHVPFTFGSGTNLEIK | 0.767 nM
7 | aNRP2-401v2 (antibody, V domains shown) VH: EVQLQESGGGLVKPGGSLKLSCAASGFTFSDYGMHWVRQAPEKGLEWVATISRDINTVYYADTVKGRFTISRDNAKNTLFLQVTSLRSEDTAMYYCTRGGYTDYWGQGTTLTVSS VL: DIVMTQTPLSLPVSLGDQASISCRSSQSLVHSNGNTYLYWYLQRPGQSPKLLIYKVSNRFSGVPDRFSGSGSGTDFTLKISRVEAEDLGVYFCSQSTHVLTFGGGTKLEIK | 0.136 nM

Second part, the binder after the results:

Row | Kd | Binder
8 | 0.48 nM | aNRP2-405v2 (antibody, V domains shown) VH: EVMLVESGGGLVKPGGSLKLSCAASGFTFRRYAMSWVRQTPEKGLEWVATITSGGSYTYYLDSVKGRITISRDNAKNTLYLQMSSLRSEDTAMYYCARHGIYGGFDYWGQGTTLTVSS VL: DVLMTQTPLSLPVSLGDQASISCRSSQSIVHSDGNTYLEWYLQKPGQSPNLLIYKVSNRFSGVPDRFSGSGSGTDFTLKISRVEAEDLGIYYCFQGSHVPFTFGSGTKLEIK
9 | 2.1 nM | aNRP2-408v2 (antibody, V domains shown) VH: EVKLVESGGGLVKPGGSLKLSCAASGFTFSSYAMSWVRQTPEKRLEWVASISRGSITYYPDSVKGRFTISRDNAGNILYLQMSSLRSEDTAMYYCAREYYYAMDYWGQGTSVTVSS VL: DIQMTQSPSSLSASLGERVSLTCRASQDIGSRLNWLQQEPDGTIKRLIYATSSLDSGVPKRFSGSRSGSDYSLTISSLESEDFVDYYCLQYASSPYTFGGGTKLEIK
10 | 2.23 nM | aNRP2-409v3 (antibody, V domains shown) VH: EVQFVETGGGLVQPKGSLKLSCAASGFTFNTNAMNWVRQAPGKGLEWVARIRTKSNNYATYYADSVKDRFTISRDDSQNILYLQMNNLKTEDTAMYYCVTLDSSGYVWFAYWGQGTLVTVSA VL: DIQMTQSPSSLSASLGERVSLTCRASQDIGSRLNWLQQEPDGTIKRLIYATSSLDSGVPKRFSGSRSGSDYSLTISSLESEDFVDYYCLQYASSPYTFGGGTKLEIK
11 | 1.4 nM | aNRP2-403v2 (antibody, V domains shown) VH: QVQLQQPGAELVKPGASVKLSCKASGYTFTSYWMHWVKQRPGRGLEWIGRIDPNSGDTKYNEKFKSKATLTVDKPSSTAYMQVSSLTSEDSAVYYCARSYDYALEYWGQGTSVTVSS VL: DVVMTQTPLSLPVSLGDQASISCRSSQSLVHSNGNTYLHWFLQKPGQSPNLLIYKVSNRFSGVPDRFSGSGSGTDFTLKISRVEAEDLGVYFCSQNTRVPRTFGGGTKLEIK
12 | 0.352 nM | aNRP2-407v2 (antibody, V domains shown) VH: EVQLQQSGPELVKPGASVTISCKASGYSFTGYYMHWVKQSHVKSLEWIGRINPYNGATSYSQNFKDKASLTIDKSSSTAYMELHSLTSEDSAVYYCAREETTAPFTYWGQGTLVTVSA VL: DIVMSQSPSSLAVSVGEKVTMSCKSSQSLLYSSNQKNYLAWYQQKPGQSPKLLIYWASTRESGVPDRFTGSGSGTDFTLTISSVQAEDLAVYFCQHYYSYPPTFGGGTKLEIK
